Ends that are not written are not given here. * marks the point of attachment. Lauroyl = CCCCCCCCCCCC(=O)*
Key:
[1] = Non-enzymatic hydrolysis of substrate in blank (absence of DBS), pH dependence; type: physicochemical
Source text: The PPT1 activity is known to have an optimum activity at pH 7 when acting on the natural substrate. […] The production of TPP-P by non-enzymatic hydrolysis in the blank sample at pH 4 was ca. 15 fold lower than that due to TPP1 activity in the DBS.

[2] = target: T1, palmitoyl protein thioesterase 1 (PPT1) (Homo sapiens, UniProt P50897); test: PPT1 assay in dried blood spots with synthetic substrate, tandem mass spectrometry (SRM); type: biochemical
T1 construct: from tissue; host or cells: dried blood spots from human newborns, NCL patients and a healthy adult control
T1 sequence (P50897 28-306): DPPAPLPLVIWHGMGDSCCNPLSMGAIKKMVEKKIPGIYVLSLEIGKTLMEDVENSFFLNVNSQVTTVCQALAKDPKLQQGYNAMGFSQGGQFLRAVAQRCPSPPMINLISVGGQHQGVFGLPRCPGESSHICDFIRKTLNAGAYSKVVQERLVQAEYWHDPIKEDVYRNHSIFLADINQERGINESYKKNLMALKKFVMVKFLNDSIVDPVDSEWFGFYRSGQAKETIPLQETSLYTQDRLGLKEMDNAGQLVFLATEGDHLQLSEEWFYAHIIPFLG
Procedure: (§1) Electrospray-MS/MS was carried out on a Waters Quattro Micro tandem quadrupole (quadrupole-hexapole-quadrupole) instrument using a positive ionization mode and selected reaction monitoring (SRM). Samples (10 μL) were flow-injected with an autosampler in an acetonitrile/water (v/v=80:20) solution containing 0.1% formic at a flow rate of 0.2 mL/min. The mass spectrometer settings were as follows: Capillary voltage 3.5 kV; cone 35 V; extractor 2.0 V; RF lens, 0.2 V; source temperature, 120° C.; desolvation temperature, 250° C.; cone gas flow, 50 L/h; desolvation gas flow, 500 L/h; LM 1 resolution, 14.8; HM 1 resolution, 14.8; ion energy 1, 0.2 eV; entrance, 2 V; collision, 25 eV; exit, 15 V; LM 2 resolution, 14.8; HM 2 resolution, 14.8; ion energy 2, 1.0 eV; multiplier, 650 V; gas cell Pirani pressure, 2.21×10^−3 mbar; dwell time 100 ms. Shorter dwell times (10 ms) were also investigated on the Quattro Micro instrument but led to increased coefficients of variation (CV) for intra-assay measurements from 1.5% at 100 ms to 4% at 10 ms, all for triplicate injections. The precursor ion-fragment ion SRM transitions for the PPT1 assays were monitored at m/z 762.5→m/z 423.5 and m/z 678.4→m/z 423.4 for PPT1-P and PPTI-IS, respectively, corresponding to the formation of the abundant y4 fragment ion of the peptide (FIGS. 1A and 1B). The SRM transitions for the TPP1 assays were monitored at m/z 308.3→m/z 208.3 and m/z 317.3→m/z 209.3 for TPP1-P and TPP1-IS, respectively, as shown in FIG. 2.
A 3-mm punch of a dried blood spot was placed in a 1.5 mL polypropylene tube (Eppendorf) and 100 μL of 100 mM phosphate buffer solution (pH 7) containing 46 nmol of PPT1 substrate (PPT1-S, FIG. 5 (left)) and 2.6 nmol of PPT1 internal standard (PPT1-IS) and 0.08% v/v Triton X-100 (ACROS, Cat #21568) was added. The solution was then vortexed briefly and incubated for 10 h at 37° C. in a thermostated air shaker at 250 rpm. After the incubation period was over, the sample was placed in an ice bath and the reaction was quenched by addition of 300 μL of ethyl acetate and 100 μL of deionized water. […]

[3] = Incubation of synthetic PPT1-P in assay buffer with DBS (digestion by proteolytic enzymes in rehydrated DBS); type: in vitro ADME, human; conditions: 18 h
Procedure: The leveling-off effect can be in part due to enzymatic digestion of PPT1-P by proteolytic enzymes in rehydrated DBS. This was checked by incubating synthetic PPT1-P in the assay buffer with DBS for 18 h. […] Since PPT1-P and PPT1-IS are similar hydrophobic peptides, it is safe to presume that their depletion will occur at similar rates and will not affect their molar ratio. […] Based on these measurements, the incubation time for both PPT1 and TPP1 was set at 10 h. The enzyme kinetics with respect to the synthetic substrates was established through Michaelis-Menten plots which were fitted to obtain the Km and Vmax values (FIGS. 12A and 12B). Each Michaelis-Menten curve was obtained from triplicate activity measurements over an appropriate substrate concentration range (0-500 μM and 0-300 μM). […] The measured Km were used to adjust the initial substrate concentrations in the assays to ≥2 Km value, e.g. 0.46 and 0.40 mM for PPT1-S and TPP1-S, respectively.

[4] = target: T2, tripeptidyl peptidase 1 (TPP1) (Homo sapiens, UniProt O14773); test: TPP1 assay in dried blood spots with synthetic substrate, tandem mass spectrometry (SRM); type: biochemical
T2 construct: from tissue; host or cells: dried blood spots from human newborns, NCL II patients and a control
T2 sequence (O14773 196-563): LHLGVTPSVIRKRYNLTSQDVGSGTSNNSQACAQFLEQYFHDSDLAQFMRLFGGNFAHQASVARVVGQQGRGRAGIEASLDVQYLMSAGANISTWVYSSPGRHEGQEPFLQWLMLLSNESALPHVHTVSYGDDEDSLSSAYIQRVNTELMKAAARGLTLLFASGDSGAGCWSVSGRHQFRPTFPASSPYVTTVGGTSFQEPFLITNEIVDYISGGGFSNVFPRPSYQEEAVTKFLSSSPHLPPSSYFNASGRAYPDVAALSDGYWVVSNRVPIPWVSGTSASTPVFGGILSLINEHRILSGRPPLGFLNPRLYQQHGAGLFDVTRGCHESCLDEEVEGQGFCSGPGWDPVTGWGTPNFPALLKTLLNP
Procedure: as §1
TPP1 substrate solution was prepared by dissolving 5 mg TPP1 substrate (FIG. 5 (right)) in 1.5 mL of dimethyl sulfoxide (DMSO). 1 mg TPP1 IS was dissolved in 1.5 mL of assay buffer, which contained 0.15 M NaCl and 0.1 M sodium acetate buffer at pH 4.0. This concentrated TPP1 IS solution was further diluted with stock assay buffer to make a 300 μM IS solution. The assay cocktail was a 100 μL mixture composed of 7.2 μL of substrate solution (40 nmol), 5 μL of 300 μM IS solution (1.5 nmol) and additional 87.8 μL of stock assay buffer. […]

[5] = target: T3, palmitoyl protein thioesterase (Homo sapiens, UniProt P50897); test: Simplex PPT1 assay (C12 thioester substrate) carried out with recombinant palmitoyl protein thioesterase, LC-MS/MS; type: biochemical; conditions: 2 μL recombinant PPT1 enzyme, 0.6 mM C12 thioester substrate, pH 6.75
T3 sequence (P50897 28-306): T1 sequence (P50897 28-306)
Procedure: Assay cocktail: a substrate and internal standard stock solution (methanol solution) were pipetted into a vial and dried using a speed vacuum. After all the solvent is removed, the residue was diluted with assay buffer (0.1M phosphate citrate buffer, 0.08% Triton X-100 (or sodium taurocholate), 0.1 mM EDTA (or no EDTA) at pH=6.75) to a final concentration of 0.6 mM (substrate), 30 μM (Internal Standard), and mixed by vortexing.
[…] For the blank control, a 3.2 mm filter paper punch was placed in a vial. 30 μL of assay cocktail was added to each vial, which either includes dried blood spot (or filter paper blanks). The Eppendorf vial is shaken at 37° C. for 16 hrs using an orbital shaker (250 rpm)/incubator.
After the incubation, the assay is quenched with 100 μL of methanol/ethyl acetate=50/50 mixture, and then 400 μL of ethyl acetate, then 200 μL of 0.5M NaCl(aq), pipette up and down 10× times to mix well.
The sample tubes were then centrifuged at 3000 rpm for 5 minutes. 200 μL of upper layer solution (organic layer) was removed, and transferred to a new shallow plate. The solvent was evaporated under nitrogen gas flow, the remaining solid was reconstituted with 100 μL LC-MS solvent (55/45 water/acetonitrile with 0.1% formic acid). The solution was mixed up and down about 10 times with a pipettor.
The plate was placed on the autosampler of the LC-MS/MS for isocratic LC-MS/MS. […]

[6] = PPT1 in DBS, Michaelis-Menten fit, triplicate activity measurements
[7] = TPP1 in DBS, Michaelis-Menten fit, triplicate activity measurements

Q: For “N-Ac-Ala-Leu-Leu-Pro-Phe-Gly-Cys-S—COC11H23 (Ac-ALLPFGC(Lauroyl); also: S-acyl: name COC11H23, mods S-palmitoyl) [PPT1 substrate, cysteine terminated heptapeptide carrying an S-palmitoyl group]”, which “non-enzymatic hydrolysis of the thioester bond” value ([1]; between pH 7 and 8) is on record?
A: substantially increased

Q: And the “product produced on average per one DBS” value ([2]; 10 h incubation)?
A: 4.7 nmol

Q: And the Km [2, 6]?
A: 230 µM

Q: What about the Vmax [2, 6] of the same molecule?
A: 217.0 µmol/L/h

Q: For Ac-ALLPFGC [PPT1-P], which “decrease of PPT1-P compared to a control sample” value [3] is on record?
A: 25-27%

Q: For C[C@H](N)C(=O)N[C@@H](C)C(=O)N[C@@H](Cc1ccccc1)C(=O)NCc1ccc(C(=O)NCCCNC(=O)OC(C)(C)C)cc1 [TPP1 substrate], which “production of TPP-P by non-enzymatic hydrolysis in the blank sample, fold lower than that due to TPP1 activity in the DBS” value ([1]; pH 4) is on record?
A: ca. 15 fold

Q: What about the “product produced per DBS” value ([4]; 10 h incubation) of the same molecule?
A: 1.7 nmol/DBS

Q: And the Km [4, 7]?
A: 53.3 µM

Q: What about the Vmax [4, 7] of the same molecule?
A: 46.0 µmol/L/h

B1: recombinant PPT1 enzyme: recombinant palmitoyl protein thioesterase (protein, UniProt P50897 28-306, looked up)
Palmitoyl-protein …: T1 sequence (P50897 28-306)
Q: For B1, which activity [5] is on record?
A: 40.4682 μmol/Lh
